The source of these data is patent publication US20220073922, “Aptamers and use thereof” (Aptitude Medical Systems, Inc., published 2022).

Series [1] concerns the target T1, Angiopoietin-2 (Ang2) (Homo sapiens, UniProt O15123 O15123:19-496). The experiment in a line: competition; blocks Ang2-Tie2 binding; PBSMCT, 37 C. Particulars: tags: His tag, R&D Systems 623-AN; label: biotin.
Procedure: (§4) Ang2-bound Tie2 and anti-Ang2 aptamers were partitioned by magnetic separation, and the Ang2-bound Tie2 were subsequently labeled via a fluorescent anti-human antibody. The fraction of Ang2-bound receptor was quantified by flow cytometry (BD Accuri C6 Plus). Raw binding data were corrected for nonspecific background binding and normalized to the fluorescence intensity from the sample with 1 nM Tie2 but without anti-Ang2 aptamer competition. The fraction of bound receptor was plotted as a function of anti-Ang2 aptamer concentration and a non-linear curve-fitting algorithm (dose-response inhibition) was used to extract IC₅₀ values from the data (FIG. 4C).
The next series addresses Angiopoietin-1 (Ang1) (Homo sapiens, UniProt Q15389 Q15389:16-498). The experiment in a line: flow; does not recognize human Ang1. Particulars: tags: R&D Systems 923-AN; label: biotin.
Series [2] deals with Angiopoietin-2 (Ang2) (Mus musculus, UniProt O35608 O35608:19-496). Kind of series: flow; PBSMCT, 37 C. As to conditions: tags: R&D Systems 7186-AN; label: biotin. On the procedure:
(§1) Various mutations and truncated variants of a representative anti-Ang2 aptamer (AMS0525) were obtained and their binding affinity to Ang2 were measured using magnetic bead partitioning. Biotinylated anti-Ang2 aptamers were conjugated to the 1 μm streptavidin-coated MyOne Streptavidin Cl magnetic beads (Thermo Fisher Scientific, 65002). Binding assays were performed by incubating fixed concentration of aptamer (0.01 nM) and Ang2 protein at concentrations ranging from 10⁻¹² to 10⁻⁸ M in PBSMCT buffer (DPBS, pH 7.2 with 2.5 mM MgCl₂, 1 mM CaCl₂) and 0.01% TWEEN-20) at 37° C. for 90 minutes. Bound target protein was partitioned by magnetic separation and subsequently labeled via fluorescent anti-His-tag antibody. The fraction of anti-Ang2 aptamer bound was quantified by flow cytometry (BD Accuri C6 Plus). Raw binding data were corrected for nonspecific background binding of target protein to empty magnetic beads. The fraction of bound anti-Ang2 aptamer was plotted as a function of protein concentration and a non-linear curve-fitting algorithm (Langmuir one-site binding model) was used to extract equilibrium binding constants (KD values) from the data (FIG. 4A).

Series [3] deals with T1, Angiopoietin-2 (Ang2). The experiment in a line: flow; PBSMCT, 37 C. Particulars: tags: His tag, R&D Systems 623-AN; label: biotin. On the procedure:
as §1

Series [4] addresses T2, VEGF-165 (VEGFA isoform 165) (Homo sapiens).
T2 chain: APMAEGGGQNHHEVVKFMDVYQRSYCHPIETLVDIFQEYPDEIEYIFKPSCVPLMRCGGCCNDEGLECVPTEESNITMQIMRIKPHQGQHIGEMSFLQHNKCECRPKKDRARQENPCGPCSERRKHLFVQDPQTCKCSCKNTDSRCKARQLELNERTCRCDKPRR
The experiment in a line: competition; blocks VEGF-R1 and VEGF-R2 binding; PBSMCT, 37 C. As to conditions: chain copies: 2 (inferred); label: biotin; stem-loop with bulges. On the procedure:
(§2) Three different recombinant VEGF receptors (two VEGF-R1 and one VEGF-R2) were tested (R&D Systems, 3516-FL, 321-FL, and 357-KD). […] VEGF-bound receptors and anti-VEGF aptamers were partitioned by magnetic separation, and the VEGF-bound VEGF receptors were subsequently labeled via a fluorescent anti-human antibody. The fraction of VEGF-bound receptor was quantified by flow cytometry (BD Accuri C6 Plus). Raw binding data were corrected for nonspecific background binding and normalized to the fluorescence intensity from the sample with 1 nM VEGF receptor but without anti-VEGF aptamer competition. The fraction of bound receptor was plotted as a function of anti-VEGF aptamer concentration and a non-linear curve-fitting algorithm (dose-response inhibition) was used to extract IC₅₀ values from the data (FIG. 2).

Series [5] concerns the target T3, VEGF-121 (VEGFA isoform 121) (Homo sapiens, UniProt P15692 SEQ:1-121). The description is as above. Particulars: chain copies: 2 (inferred); label: biotin; stem-loop with bulges. On the procedure:
as §2

The target in series [6] is T2, VEGF-165 (VEGFA isoform 165). Kind of series: flow; PBSMCT, 37 C; Table 7 gives a different value. Particulars: chain copies: 2 (inferred); label: biotin; stem-loop with bulges. On the procedure:
(§3) Truncated and modified variants of the anti-VEGF aptamers of the present disclosure were prepared by LGC Biosearch Technologies (Novato, Calif.), and their binding affinity to corresponding targets were examined. Briefly, the equilibrium binding constants of the enriched libraries were measured using magnetic bead partitioning. Biotinylated anti-VEGF aptamers were conjugated to the 1 μm streptavidin-coated MyOne Streptavidin Cl magnetic beads (Thermo Fisher Scientific, 65002). Binding assays were performed by incubating fixed concentration of anti-VEGF aptamer (0.01 nM) and target protein at concentrations ranging from 10⁻¹² to 10⁻⁸ M in PBSMCT buffer (DPBS, pH 7.2 with 2.5 mM MgCl₂, 1 mM CaCl₂) and 0.01% TWEEN-20) at 37° C. for 90 minutes. Bound target protein was partitioned by magnetic separation and subsequently labeled via fluorescent anti-VEGF or anti-His-tag antibody. The fraction of anti-VEGF aptamer bound was quantified by flow cytometry (BD Accuri C6 Plus). Raw binding data were corrected for nonspecific background binding of target protein to empty magnetic beads. The fraction of bound anti-VEGF aptamer was plotted as a function of protein concentration and a non-linear curve-fitting algorithm (Langmuir one-site binding model) was used to extract equilibrium binding constants (KD values) from the data (FIG. 1).

Series [7] deals with T3, VEGF-121 (VEGFA isoform 121). The description is as above. As to conditions: chain copies: 2 (inferred); label: biotin; stem-loop with bulges. On the procedure:
as §3

Series [8] deals with T2, VEGF-165 (VEGFA isoform 165). The experiment in a line: flow; PBSMCT, 37 C; Table 6 gives a different value. Particulars: chain copies: 2 (inferred); label: biotin; stem-loop with bulges. On the procedure:
as §3

Series [9] concerns the target T3, VEGF-121 (VEGFA isoform 121). The series is described as above. As to conditions: chain copies: 2 (inferred); label: biotin; stem-loop with bulges. On the procedure: as §3
Series [10] addresses T2, VEGF-165 (VEGFA isoform 165). Kind of series: flow; PBSMCT, 37 C. Particulars: chain copies: 2 (inferred); label: biotin; stem-loop with bulges. On the procedure:
as §3

For series [11], the target named is T3, VEGF-121 (VEGFA isoform 121). The experiment in a line: flow; PBSMCT, 37 C. As to conditions: chain copies: 2 (inferred); label: biotin; stem-loop with bulges. On the procedure: as §3
Series [12] has the same target. The experiment in a line: flow. As to conditions: chain copies: 2 (inferred).
Series [13] concerns the target T1, Angiopoietin-2 (Ang2). Kind of series: flow. As to conditions: tags: His tag, R&D Systems 623-AN.
In series [14] the target is T1, Angiopoietin-2 (Ang2). The experiment in a line: competition; blocks Ang2-Tie2. As to conditions: tags: His tag, R&D Systems 623-AN; label: 5'-biotin.
Procedure: as §4

Where only a bound is given, the exact number is not on record here.

T1 sequence (O15123 19-496, one chain of several): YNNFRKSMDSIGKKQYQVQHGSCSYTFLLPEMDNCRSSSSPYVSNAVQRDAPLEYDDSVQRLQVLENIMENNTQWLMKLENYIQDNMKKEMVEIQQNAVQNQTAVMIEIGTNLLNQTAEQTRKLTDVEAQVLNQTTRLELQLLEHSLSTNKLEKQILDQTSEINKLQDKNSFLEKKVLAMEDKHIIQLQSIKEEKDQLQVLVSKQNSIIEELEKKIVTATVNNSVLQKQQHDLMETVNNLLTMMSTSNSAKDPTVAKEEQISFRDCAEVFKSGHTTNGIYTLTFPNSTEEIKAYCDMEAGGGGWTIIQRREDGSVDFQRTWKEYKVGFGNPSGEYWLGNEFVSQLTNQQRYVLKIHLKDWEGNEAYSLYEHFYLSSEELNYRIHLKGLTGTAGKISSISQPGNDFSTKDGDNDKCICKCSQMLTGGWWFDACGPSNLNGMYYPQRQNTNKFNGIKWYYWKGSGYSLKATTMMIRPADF
Angiopoietin-2 (Ang2) (Mus musculus, UniProt O35608 O35608:19-496), sequence (O35608 19-496, one chain of several): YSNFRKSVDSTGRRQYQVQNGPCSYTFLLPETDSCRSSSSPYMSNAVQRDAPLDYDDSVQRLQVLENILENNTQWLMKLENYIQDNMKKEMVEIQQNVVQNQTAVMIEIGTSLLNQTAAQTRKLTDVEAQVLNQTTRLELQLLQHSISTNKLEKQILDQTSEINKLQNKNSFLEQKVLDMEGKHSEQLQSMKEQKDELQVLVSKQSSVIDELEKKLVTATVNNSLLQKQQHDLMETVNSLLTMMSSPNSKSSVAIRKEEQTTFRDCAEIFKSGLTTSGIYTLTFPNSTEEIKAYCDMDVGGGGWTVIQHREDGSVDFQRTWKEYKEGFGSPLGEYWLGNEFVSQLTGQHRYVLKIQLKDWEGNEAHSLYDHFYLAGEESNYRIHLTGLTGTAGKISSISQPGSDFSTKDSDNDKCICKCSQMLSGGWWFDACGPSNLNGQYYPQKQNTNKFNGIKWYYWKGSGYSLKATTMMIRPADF
Angiopoietin-1 (Ang1), sequence (Q15389 16-498, one chain of several): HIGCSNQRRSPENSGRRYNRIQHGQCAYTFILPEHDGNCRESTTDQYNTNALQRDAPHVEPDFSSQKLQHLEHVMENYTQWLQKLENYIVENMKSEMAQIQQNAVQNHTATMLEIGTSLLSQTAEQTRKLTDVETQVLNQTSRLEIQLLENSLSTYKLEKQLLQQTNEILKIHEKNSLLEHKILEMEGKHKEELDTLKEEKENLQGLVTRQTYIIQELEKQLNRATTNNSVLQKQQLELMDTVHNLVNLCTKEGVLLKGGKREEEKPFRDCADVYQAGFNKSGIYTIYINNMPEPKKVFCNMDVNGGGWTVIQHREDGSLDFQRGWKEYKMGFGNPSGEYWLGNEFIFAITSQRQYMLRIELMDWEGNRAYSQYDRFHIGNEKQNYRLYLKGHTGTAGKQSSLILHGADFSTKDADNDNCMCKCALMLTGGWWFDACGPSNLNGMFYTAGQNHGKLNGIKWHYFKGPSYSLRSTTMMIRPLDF

On to CGCAUAGAUAAGCCAACAAACGUACAUUCUCUGUUAGUAUUUUCUGCG (ssRNA, 2'-F all positions) [AMS0526], for which the IC50 – broadly, the concentration that inhibits the measured activity by half – in the series with Angiopoietin-2 (Ang2) [1] is 83.9 pM. Also, the binding result in the series with Angiopoietin-1 (Ang1) was “no binding”. Moreover, the figures for the dissociation constant Kd with Angiopoietin-2 (Ang2) [2] and with Angiopoietin-2 (Ang2) [3] were less than 100 pM and 32 pM, respectively.

With CGUGGAGAUGCAUUCUGUCGAAGAUUGGCUAACACG (ssRNA, 2'-F all positions) [AMS0426], the half-inhibitory concentration (IC50) in series [4] and in series [5] was approximately 100 pM each time. Moreover, the Kd (commonly the free concentration of one partner at which half of the binding sites on the other are occupied at equilibrium, for simple one-to-one binding) in [6] came out at 349 pM; in series [7] it was 214 pM; in series [8] it was 151 pM; in series [9], 86 pM.

Consider CGCUAGAUGGCUAACACUAUUGUGGAGAUGCACUAGCG (ssRNA, 2'-F all positions) [AMS0427], for which the IC50 in series [4] and in series [5] was approximately 100 pM each time. Also, the dissociation constant (Kd) in series [10] was determined as 91 pM; in series [11] it was 45 pM.

B1: AMSB105 (ssRNA)
RNA: CGCAUAGAUAAGCCAACAAACGUACAUUCUCUGUUAGUAUUUUCUGCGCGUGGAGAUGCAUUCUGUCGAAGAUUGGCUAACACG
modifications: 2'-F all positions
As for B1, the Kd in series [12] (label: biotin) was 123 pM; with Angiopoietin-2 (Ang2) [13] (label: biotin), 52 pM.

B2: AMSB106 (ssRNA)
RNA: CGCAUAGAUAAGCCAACAAACGUACAUUCUCUGUUAGUAUUUUCUGCGCGCUAGAUGGCUAACACUAUUGUGGAGAUGCACUAGCG
modifications: 2'-F all positions
On to B2, for which the dissociation constant (Kd) is 43 pM in [12] (label: biotin) and 31 pM in the series with Angiopoietin-2 (Ang2) [13] (label: biotin).

B3: AMSB103 (ssRNA)
RNA: CGCUAGAUGGCUAACACUAUUGUGGAGAUGCACUAGCGCGCAUAGAUAAGCCAACAAACGUACAUUCUCUGUUAGUAUUUUCUGCG
modifications: 2'-F all positions
B3: the dissociation constant Kd in series [12] (label: 5'-biotin) came out at 39 pM; in the series with Angiopoietin-2 (Ang2) [13] (label: 5'-biotin) it was 29 pM. In the series with Angiopoietin-2 (Ang2) [14], this molecule yielded an IC50 of less than 100 pM.

B4: AMSB104 (ssRNA)
RNA: CGCAUAGAUAAGCCAACAAACGUACAUUCUCUGUUAGUAUUUUCUGCGUUUCGCUAGAUGGCUAACACGUAUAUUUGUGGAGAUGCACUAGCG
modifications: 2'-F all positions
In the case of B4, the Kd was determined as 87 pM in [12] (label: biotin) and 159 pM in the series with Angiopoietin-2 (Ang2) [13] (label: biotin).
